Data from PMC2965227.
Where two headings read alike, the source gives them in different places.

What was measured:
YY1 (Yin Yang 1) [1] = target: T1, YY1 (Yin Yang 1) (human, UniProt P25490 1-414); experiment: EMSA
YY1 (Yin Yang 1) [2] = target: T1, YY1 (Yin Yang 1); experiment: EMSA; remark: listed apart in the source

T1 sequence (P25490 whole entry): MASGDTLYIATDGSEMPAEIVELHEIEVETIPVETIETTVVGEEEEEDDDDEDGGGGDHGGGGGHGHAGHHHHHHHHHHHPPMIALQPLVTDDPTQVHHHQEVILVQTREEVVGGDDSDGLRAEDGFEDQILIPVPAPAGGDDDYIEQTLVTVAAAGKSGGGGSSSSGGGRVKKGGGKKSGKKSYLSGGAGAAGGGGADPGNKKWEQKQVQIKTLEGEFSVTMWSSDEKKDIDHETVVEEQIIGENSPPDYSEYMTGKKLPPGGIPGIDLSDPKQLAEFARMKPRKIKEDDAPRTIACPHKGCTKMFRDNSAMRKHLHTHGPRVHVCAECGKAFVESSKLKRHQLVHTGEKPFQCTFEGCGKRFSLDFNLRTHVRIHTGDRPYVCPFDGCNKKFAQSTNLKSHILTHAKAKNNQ

B1: LEF1 P2 wild-type probe (+13 to +37) (dsDNA)
DNA 1: AAAGCATCCAGATGGAGGCCTCTAC
DNA 2: GTAGAGGCCTCCATCTGGATGCTTT
B1: binds (YY1 (Yin Yang 1) [1]).

B2: LEF1 P2 YY1-site mutant probe (ATG to CGT) (dsDNA)
DNA 1: AAAGCATCCAGCGTGAGGCCTCTAC
DNA 2: GTAGAGGCCTCACGCTGGATGCTTT
B2: no binding (YY1 (Yin Yang 1) [2]).
